T1: human CD19 (human, UniProt P15391 20-556)
T1 construct: CD19 as expressed on Raji, NALM-6 and SU-DHL-6 cells; also called CD19 antigen; B-cell surface antigen B4
T1 sequence: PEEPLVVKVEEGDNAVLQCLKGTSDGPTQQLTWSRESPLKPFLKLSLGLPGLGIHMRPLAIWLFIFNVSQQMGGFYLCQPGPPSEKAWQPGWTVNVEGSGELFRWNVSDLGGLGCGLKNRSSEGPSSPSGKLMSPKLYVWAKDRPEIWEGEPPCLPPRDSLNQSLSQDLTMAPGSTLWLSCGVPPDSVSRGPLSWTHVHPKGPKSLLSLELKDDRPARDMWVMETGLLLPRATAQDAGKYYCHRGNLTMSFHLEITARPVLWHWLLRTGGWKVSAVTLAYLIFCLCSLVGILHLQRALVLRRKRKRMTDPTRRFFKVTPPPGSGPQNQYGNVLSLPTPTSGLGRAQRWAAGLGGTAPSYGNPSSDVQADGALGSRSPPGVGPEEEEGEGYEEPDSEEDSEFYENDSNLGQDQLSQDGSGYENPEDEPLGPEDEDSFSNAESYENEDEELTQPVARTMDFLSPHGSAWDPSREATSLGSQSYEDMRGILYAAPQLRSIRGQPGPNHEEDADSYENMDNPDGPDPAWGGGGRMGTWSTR


What was measured:
[1] = molecular target: T1, human CD19; experiment: flow cytometry, NALM-6 cells, MPF vs chimeric FMC63
Protocol: (§1) Binding of the CD19 humanized monoclonal antibodies by flow cytometry to Raji tumor cells (human Burkitt lymphoma, DSMZ ACC319), NALM-6 (human B cell precursor leukemia, DSMZ ACC128) and SU-DHL-6 (human B cell lymphoma, DSMZ ACC572) (all cell lines from DSMZ Braunschweig, Deutschland) was assessed. Cells were incubated with serial dilutions of each humanized monoclonal antibody. An irrelevant human IgG1 was used as a negative control. The cells were washed and detected by a phycoerythrin-labeled (PE) anti-human secondary antibody (eBioscience, CA, USA) and analyzed by flow cytometry. […] From MFI versus antibody concentration curves, Mid-Point Fluorescence (MPF) value for each anti-CD19 humanized antibody was calculated using the software GraphPad Prism 5 (CA, USA).

[2] = molecular target: T1, human CD19; experiment: flow cytometry, Raji cells, MPF vs chimeric FMC63
Protocol: as §1

Binder | relative MPF (% of chimeric FMC63) [1] [%] | relative MPF (% of chimeric FMC63) [2] [%] | binding result [2]
VH16-F67L/VL43 (antibody, human IgG1, name in Kabat numbering, V domains shown, substitutions in Kabat numbering) VH: QVQLVQSGGGVVQPGRSLRLSCAASGVSLPDYGVSWVRQAPGKGLEWVAVIWGSETTYYNSALKSRLTISRDNSKNTLYLQMNSLRAEDTAVYYCARHYYYGGSYAMDYWGQGTLVTVSS VL: DIVMTQTPSSLSASVGDRVTITCRASQDISKYLNWYQQKPGKAPKLLIYHTSRLHSGVPSRFSGSGSGTDFTLTISSLQPEDFATYYCQQGNTLPYTFGPGTKVDIKR | 2.4 |  | 
VH16 Y32F/R94K/VL43 V3Q/T7S/P44I/N92A (antibody, human IgG1, name in Kabat numbering, V domains shown, Full-length human IgG1/kappa; substitutions in Kabat numbering) VH: QVQLVQSGGGVVQPGRSLRLSCAASGVSLPDFGVSWVRQAPGKGLEWVAVIWGSETTYYNSALKSRFTISRDNSKNTLYLQMNSLRAEDTAVYYCAKHYYYGGSYAMDYWGQGTLVTVSS VL: DIQMTQSPSSLSASVGDRVTITCRASQDISKYLNWYQQKPGKAIKLLIYHTSRLHSGVPSRFSGSGSGTDFTLTISSLQPEDFATYYCQQGATLPYTFGPGTKVDIKR |  | 133 | 
VH16-G42R/VL43 (antibody, human IgG1, name in Kabat numbering, V domains shown, substitutions in Kabat numbering) VH: QVQLVQSGGGVVQPGRSLRLSCAASGVSLPDYGVSWVRQAPRKGLEWVAVIWGSETTYYNSALKSRFTISRDNSKNTLYLQMNSLRAEDTAVYYCARHYYYGGSYAMDYWGQGTLVTVSS VL: DIVMTQTPSSLSASVGDRVTITCRASQDISKYLNWYQQKPGKAPKLLIYHTSRLHSGVPSRFSGSGSGTDFTLTISSLQPEDFATYYCQQGNTLPYTFGPGTKVDIKR | 3.48 |  | 
VH16/VL43-P44V (antibody, human IgG1, V domains shown, substitutions in Kabat numbering) VH: QVQLVQSGGGVVQPGRSLRLSCAASGVSLPDYGVSWVRQAPGKGLEWVAVIWGSETTYYNSALKSRFTISRDNSKNTLYLQMNSLRAEDTAVYYCARHYYYGGSYAMDYWGQGTLVTVSS VL: DIVMTQTPSSLSASVGDRVTITCRASQDISKYLNWYQQKPGKAVKLLIYHTSRLHSGVPSRFSGSGSGTDFTLTISSLQPEDFATYYCQQGNTLPYTFGPGTKVDIKR | 6.05 | 9.72 | 
VH16 R94K/VL43 V3Q/T7S/N92A (antibody, human IgG1, Full-length human IgG1/kappa; substitutions in Kabat numbering) heavy: not shown VL: DIQMTQSPSSLSASVGDRVTITCRASQDISKYLNWYQQKPGKAPKLLIYHTSRLHSGVPSRFSGSGSGTDFTLTISSLQPEDFATYYCQQGATLPYTFGPGTKVDIKRTVAA |  | 18.2 | 
VH16-G42R/VL43-Y87F (antibody, human IgG1, name in Kabat numbering, V domains shown, substitutions in Kabat numbering) VH: QVQLVQSGGGVVQPGRSLRLSCAASGVSLPDYGVSWVRQAPRKGLEWVAVIWGSETTYYNSALKSRFTISRDNSKNTLYLQMNSLRAEDTAVYYCARHYYYGGSYAMDYWGQGTLVTVSS VL: DIVMTQTPSSLSASVGDRVTITCRASQDISKYLNWYQQKPGKAPKLLIYHTSRLHSGVPSRFSGSGSGTDFTLTISSLQPEDFATYFCQQGNTLPYTFGPGTKVDIKR | 3.65 | 8.43 | 
VH16-R94K/VL43-Y87F (antibody, human IgG1, V domains shown, Full-length human IgG1/kappa; substitutions in Kabat numbering) VH: QVQLVQSGGGVVQPGRSLRLSCAASGVSLPDYGVSWVRQAPGKGLEWVAVIWGSETTYYNSALKSRFTISRDNSKNTLYLQMNSLRAEDTAVYYCAKHYYYGGSYAMDYWGQGTLVTVSS VL: DIVMTQTPSSLSASVGDRVTITCRASQDISKYLNWYQQKPGKAPKLLIYHTSRLHSGVPSRFSGSGSGTDFTLTISSLQPEDFATYFCQQGNTLPYTFGPGTKVDIKR |  | 31.8 | 
VH16-R94K/VL43-F71Y (antibody, human IgG1, V domains shown, Full-length human IgG1/kappa; substitutions in Kabat numbering) VH: QVQLVQSGGGVVQPGRSLRLSCAASGVSLPDYGVSWVRQAPGKGLEWVAVIWGSETTYYNSALKSRFTISRDNSKNTLYLQMNSLRAEDTAVYYCAKHYYYGGSYAMDYWGQGTLVTVSS VL: DIVMTQTPSSLSASVGDRVTITCRASQDISKYLNWYQQKPGKAPKLLIYHTSRLHSGVPSRFSGSGSGTDYTLTISSLQPEDFATYYCQQGNTLPYTFGPGTKVDIKR | 23.5 | 41.8 | 
VH16-F67L/VL43-P44V (antibody, human IgG1, name in Kabat numbering, V domains shown, substitutions in Kabat numbering) VH: QVQLVQSGGGVVQPGRSLRLSCAASGVSLPDYGVSWVRQAPGKGLEWVAVIWGSETTYYNSALKSRLTISRDNSKNTLYLQMNSLRAEDTAVYYCARHYYYGGSYAMDYWGQGTLVTVSS VL: DIVMTQTPSSLSASVGDRVTITCRASQDISKYLNWYQQKPGKAVKLLIYHTSRLHSGVPSRFSGSGSGTDFTLTISSLQPEDFATYYCQQGNTLPYTFGPGTKVDIKR | 2.37 |  | 
VH16-G42R/VL43-F71Y (antibody, human IgG1, name in Kabat numbering, V domains shown, substitutions in Kabat numbering) VH: QVQLVQSGGGVVQPGRSLRLSCAASGVSLPDYGVSWVRQAPRKGLEWVAVIWGSETTYYNSALKSRFTISRDNSKNTLYLQMNSLRAEDTAVYYCARHYYYGGSYAMDYWGQGTLVTVSS VL: DIVMTQTPSSLSASVGDRVTITCRASQDISKYLNWYQQKPGKAPKLLIYHTSRLHSGVPSRFSGSGSGTDYTLTISSLQPEDFATYYCQQGNTLPYTFGPGTKVDIKR | 3.97 |  | 
VH16-R71K/VL43-F71Y (antibody, human IgG1, name in Kabat numbering, V domains shown, substitutions in Kabat numbering) VH: QVQLVQSGGGVVQPGRSLRLSCAASGVSLPDYGVSWVRQAPGKGLEWVAVIWGSETTYYNSALKSRFTISKDNSKNTLYLQMNSLRAEDTAVYYCARHYYYGGSYAMDYWGQGTLVTVSS VL: DIVMTQTPSSLSASVGDRVTITCRASQDISKYLNWYQQKPGKAPKLLIYHTSRLHSGVPSRFSGSGSGTDYTLTISSLQPEDFATYYCQQGNTLPYTFGPGTKVDIKR | 2.67 |  | 
VH16-L78V/VL43-P44V (antibody, human IgG1, name in Kabat numbering, V domains shown, substitutions in Kabat numbering) VH: QVQLVQSGGGVVQPGRSLRLSCAASGVSLPDYGVSWVRQAPGKGLEWVAVIWGSETTYYNSALKSRFTISRDNSKNTVYLQMNSLRAEDTAVYYCARHYYYGGSYAMDYWGQGTLVTVSS VL: DIVMTQTPSSLSASVGDRVTITCRASQDISKYLNWYQQKPGKAVKLLIYHTSRLHSGVPSRFSGSGSGTDFTLTISSLQPEDFATYYCQQGNTLPYTFGPGTKVDIKR | 10.9 | 25.9 | 
VH16 R94K VL43 Y32F (antibody, human IgG1, V domains shown, Full-length human IgG1/kappa; substitutions in Kabat numbering) VH: QVQLVQSGGGVVQPGRSLRLSCAASGVSLPDYGVSWVRQAPGKGLEWVAVIWGSETTYYNSALKSRFTISRDNSKNTLYLQMNSLRAEDTAVYYCAKHYYYGGSYAMDYWGQGTLVTVSS VL: DIVMTQTPSSLSASVGDRVTITCRASQDISKFLNWYQQKPGKAPKLLIYHTSRLHSGVPSRFSGSGSGTDFTLTISSLQPEDFATYYCQQGNTLPYTFGPGTKVDIKR |  | 39.5 | 

More lines, now with the values ahead:

relative MPF (% of chimeric FMC63) [1] [%] | relative MPF (% of chimeric FMC63) [2] [%] | binding result [2] | Binder
 | 10 |  | VH16/VL43-Y87F (antibody, human IgG1, V domains shown, substitutions in Kabat numbering) VH: QVQLVQSGGGVVQPGRSLRLSCAASGVSLPDYGVSWVRQAPGKGLEWVAVIWGSETTYYNSALKSRFTISRDNSKNTLYLQMNSLRAEDTAVYYCARHYYYGGSYAMDYWGQGTLVTVSS VL: DIVMTQTPSSLSASVGDRVTITCRASQDISKYLNWYQQKPGKAPKLLIYHTSRLHSGVPSRFSGSGSGTDFTLTISSLQPEDFATYFCQQGNTLPYTFGPGTKVDIKR
 |  | binds | VH16 Y32F/R94K/Y97F/VL43 V3Q/T7S/P44I/N92A (antibody, human IgG1, name in Kabat numbering, V domains shown, Full-length human IgG1/kappa; substitutions in Kabat numbering) VH: QVQLVQSGGGVVQPGRSLRLSCAASGVSLPDFGVSWVRQAPGKGLEWVAVIWGSETTYYNSALKSRFTISRDNSKNTLYLQMNSLRAEDTAVYYCAKHYFYGGSYAMDYWGQGTLVTVSS VL: DIQMTQSPSSLSASVGDRVTITCRASQDISKYLNWYQQKPGKAIKLLIYHTSRLHSGVPSRFSGSGSGTDFTLTISSLQPEDFATYYCQQGATLPYTFGPGTKVDIKR
 |  | binds | VH16 R94K/VL43 V3Q/T7S/Y32F/N92A (antibody, human IgG1, V domains shown, Full-length human IgG1/kappa; substitutions in Kabat numbering) VH: QVQLVQSGGGVVQPGRSLRLSCAASGVSLPDYGVSWVRQAPGKGLEWVAVIWGSETTYYNSALKSRFTISRDNSKNTLYLQMNSLRAEDTAVYYCAKHYYYGGSYAMDYWGQGTLVTVSS VL: DIQMTQSPSSLSASVGDRVTITCRASQDISKFLNWYQQKPGKAPKLLIYHTSRLHSGVPSRFSGSGSGTDFTLTISSLQPEDFATYYCQQGATLPYTFGPGTKVDIKR
 |  | binds | VH16 Y32F/R94K/VL43 V3Q/T7S/Y32F/P44I/N92A (antibody, human IgG1, name in Kabat numbering, V domains shown, Full-length human IgG1/kappa; substitutions in Kabat numbering) VH: QVQLVQSGGGVVQPGRSLRLSCAASGVSLPDFGVSWVRQAPGKGLEWVAVIWGSETTYYNSALKSRFTISRDNSKNTLYLQMNSLRAEDTAVYYCAKHYYYGGSYAMDYWGQGTLVTVSS VL: DIQMTQSPSSLSASVGDRVTITCRASQDISKFLNWYQQKPGKAIKLLIYHTSRLHSGVPSRFSGSGSGTDFTLTISSLQPEDFATYYCQQGATLPYTFGPGTKVDIKR
 |  | binds | VH16 R94K/Y97F/VL43 V3Q/T7S/Y32F/P44I/N92A (antibody, human IgG1, name in Kabat numbering, V domains shown, Full-length human IgG1/kappa; substitutions in Kabat numbering) VH: QVQLVQSGGGVVQPGRSLRLSCAASGVSLPDYGVSWVRQAPGKGLEWVAVIWGSETTYYNSALKSRFTISRDNSKNTLYLQMNSLRAEDTAVYYCAKHYFYGGSYAMDYWGQGTLVTVSS VL: DIQMTQSPSSLSASVGDRVTITCRASQDISKFLNWYQQKPGKAIKLLIYHTSRLHSGVPSRFSGSGSGTDFTLTISSLQPEDFATYYCQQGATLPYTFGPGTKVDIKR
